Key:
[1] = test system: Ramos tumor cells; assay: MTT cell proliferation assay; format: cell-based, human; settings: 24 to 72 hrs, AM3-114 at 10 μM
Experimental: The ability of the CXCR4 molecules or polypeptides disclosed herein (i-bodies) to inhibit proliferation of Ramos tumor cells, a human Burkitt's lymphoma cell line expressing CXCR4 mentioned above, in vitro was examined in a MTT cell proliferation assay as described in (Lapteva (2005) Cancer Gene Therapy 12, 84-89). Cells were grown in a 96-well tissue culture plate and treated with a vehicle or the anti-CXCR4 body. The cells were then incubated with the MTT solution for approximately 4 hours. After this incubation period, a water-insoluble formazan dye is formed. After solubilization, the formazan dye is quantitated using a scanning multi-well spectrophotometer (ELISA reader).

[2] = test system: HIV entry into CXCR4 expressing T-cells; assay: In vitro HIV inhibition assay; format: cell-based
[3] = test system: human CD34+ stem and progenitor cells; assay: Mobilisation of human CD34+ cells in humanised NSG mice; format: in vivo, humanized NODSIL2Rγ (NSG) mice; settings: humanised NSG mouse model, compared to AMD3100
Experimental: To acquire evidence of mobilisation of human CD34^+ stem and progenitor cells using CXCR4 i-bodies, the above mobilisation experiment was conducted in humanized NODSIL2Rγ (NSG) mice. NSG mice are severely immunodeficient and lack mature T cells, B-cells and NK cells and have severely defective innate immunity, which allows engraftment of human cells without subsequent rejection. NSG mice were transplanted with freshly sorted CD34^+ cord blood cells and upon confirmation of positive human CD45/CD34 engraftment (˜4-5 weeks) were used as a mouse model for human stem cell mobilisation.
Mobilised peripheral blood was harvested and assessed for CD34^+ (human stem and progenitors).

[4] = Murine air pouch model with SDF-1; format: in vivo, BALB/c mice; settings: intraperitoneal, 30 minutes before SDF-1 6 μg
Experimental: The ability of i-bodies to block inflammation was evaluated in an in vivo murine air pouch model. The subcutaneous (s.c.) air pouch is an in vivo model used to study acute and chronic inflammation (Durate et al, Models of Inflammation: Carrageenan Air Pouch, Current Protocols in Pharmacology 5.6.1-5.6.8, March 2012). Injection of irritants into an air pouch in rats or mice induces an inflammatory response that can be quantified by the volume of exudate produced, the infiltration of cells, and the release of inflammatory mediators. An air pouch, is generated by injection of sterile air under the skin of the back of the mouse. […] Air pouch lavage fluid is then analyzed for cell trafficking and cytokine release.
The air pouch assay was performed on 7-week-old BALB/c mice. On days 1 and 3, 0.2 ml/g initial body weight (IBW) of sterile air was injected under the back skin to create the pouch. […] Thirty minutes later, SDF-1 (6 μg) was injected into the pouch. Four hours later, the mice were killed in a CO2 chamber and the air pouch was washed. Cells were collected, counted, and characterized by flow cytometry.

[5] = Bleomycin mouse model of pulmonary fibrosis; format: in vivo; settings: day 4, dose not given
Excerpt: The optimal dose of Bleomycin is 2 U/mouse and the optimal time for assessing fibrocyte recruitment was confirmed at day 4. At days 4 bronchoalvelolar lavage (BAL) fluids were collected for analysis of SDF-1 concentration. One half of the lung tissue was used to make single cell suspensions of the lung and the cells used for flow cytometry and assayed for CD45+, CXCR4+ and Collagen1+ (fibrocytes). The other half of the lung tissue was Sircol stained for the presence of collagen 1 and RNA will be tested for Col-1, Col-3 and SDF-1.
SDF-1, fibrocytes and collagen deposition were monitored at Day 4. Groups were dosed with the i-body just prior to administration with Bleomycin. One half of the lung tissue was minced and washed in PBS and used to make single cell suspensions of the lung with Collagenase A and dispase treatment. The cells were then used for flow cytometry and assayed for CD45+, CXCR4+ and Collagen1+ fibrocytes. […]

[6] = test system: normal and IPF lung fibroblasts; assay: Wound healing invasion assay of lung fibroblasts; format: cell-based, human; settings: AMD3100 12 μM, 21H5 130 μg/ml
Experimental: To determine the role of CXCR4 and CXCL12 in fibroblast invasion, normal and IPF lung fibroblasts were utilized in a wound healing invasion assay. ImageLock 96 well plates (Essen Bioscience) were coated with 50 μg/ml of Basement membrane extract (BME; Trevigen) for one hour at room temperature. Normal, and fibroblasts generated from lung biopsies of idiopathic pulmonary fibrosis (IPF) patients showing slow progression or rapid progression of the disease were plated (36,000 cells per well) on the BME-coated plates and incubated overnight. […] The BME was allowed to polymerize by incubating the plate at 37° C. for 15 minutes. The plates were then inserted into an IncuCyte Zoom imaging system and images were acquired every 2 hours for approximately 50 hours. Invasion was quantified using IncuCyte software (Essen Bioscience).

[7] = test system: Human platelet rich plasma; assay: SDF-1α induced platelet aggregation; format: cell-based; settings: 10 or 20 ug/mL, 100 nM SDF-1 alpha
Experimental: Experiments were carried out to examine whether the i-bodies could block platelet aggregation induced by SDF-1α. […] In the presence of negative control i-body 21H5 (or the isotype control for 12G5: mouse IgG2a). SDF-1 induced a robust and reproducible aggregation (the descending black curves, which indicate an increase in light transmission), which matches with what has been previously published.

[8] = MOG induced experimental autoimmune encephalomyelitis (EAE); format: in vivo, mouse; settings: immunohistochemistry, hematoxylin and eosin
Experimental: This is the time that has been reported to be critical for infiltration of inflammatory cells across the blood brain barrier. […] It appears that blocking this migration can alleviate the symptoms of EAE.
Immunohistochemistry of the brains of the experimental mice was performed.

B1: 21H5: control i-body which does not bind to CXCR4, isotype control, SEQ ID NO: 82 (protein)
chain: LQVDIVPSQGEISVGESKFFLCQVAGDAKDKDISWFSPNGEKLTPNQQRISVVWNDDSSSTLTIYNANIDDAGIYKCVVTGSDAMSNYSYPISESEATVNVKIFQ
modifications: amino acid sequence encoding 21H5 i-body
- growth of RAMOS cells [1]: little effect on cell growth
- effect in HIV inhibition assay [2]: no effect
- mobilisation of human CD34+ stem cells [3]: do not mobilise stem cells
- cell migration / leukocyte infiltration into the air pouch [4]: did not inhibit cell migration
- recruitment of fibrocytes into the lungs [5]: Neither the vehicle alone nor the negative control i-body affected recruitment
- invasion / motility of normal, slow and rapid IPF lung fibroblast lines [6]: had no effect
- blocking of SDF-1α induced platelet aggregation [7]: Neither the negative control i-body nor the control MAb had any effect
- inflammatory T-cell infiltration into the white matter of the brain [8]: Dramatic T-cell infiltration
